From patent US7790697B2, “Compositions and methods for inhibiting the synthesis or expression of MMP-1” (Trustees of Dartmouth College, priority 2004, dated 2010)

Columns and labels:
Format in all cases: cell-based, human
MMP-9 mRNA = assay: Specificity qRT-PCR, MMP-9 mRNA in stable MDA-231 cells; settings: stable MDA-231 cell lines, 24 hour serum-free; group average ± S.D.; P=0.1 vs empty vector
From the text: RNA Isolation and Real-Time RT-PCR. […] Real-Time PCR Primer Sequences. […] ID NO:7; MMP-1 reverse [NT] ID NO:8; MMP-2 forward [NT] ID NO:9; MMP-2 reverse [NT] ID NO:10; MMP-9 forward [NT] ID NO:11; MMP-9 reverse [NT] ID NO:12; MMP-13 forward [NT], SEQ ID NO:13; MMP-13 reverse [NT] ID NO:14; MMP-14 forward [NT] ID NO:15; MMP-14 reverse [NT] ID NO:16; GAPDH forward [NT] ID NO:17; GAPDH reverse [NT] ID NO:18; eGFP forward [NT] ID NO:19; eGFP reverse [NT] ID NO:20. Real-Time PCR Standards.

MMP-1 mRNA = MMP-1 mRNA by qRT-PCR in stably transfected MDA-231 cell lines; settings: for Copies of MMP-1 mRNA per pg GAPDH mRNA: average ± S.D.
Method: Transfection of NIH/3T3 and MDA-231 Cells. NIH/3T3 cells were transiently transfected with LIPOFECTAMINE™ 2000 (INVITROGEN™, Carlsbad, Calif.) along with 0.5 μg peGFP, 0.5 μg pCMV-MMP-1, and 2 μg PSUPER™-MMP-1 shRNA or PSUPER™ with no insert. Transfection efficiency was monitored using eGFP signal. Total cellular RNA was harvested 48 hours after transfection and analyzed for MMP-1 mRNA by real-time RT-PCR. MDA-231 cells were stably transfected in triplicate with LIPOFECTAMINE™ 2000 (INVITROGEN™, Carlsbad, Calif.) and 2 μg of the PSUPER™.Retro.Neo.GFP plasmid containing the MMP-1 shRNA, the scrambled sequence or just the empty vector. Stable cell lines were selected by growth in the presence of 1 mg/mL G418 (STRATAGENE®, La Jolla, Calif.). Individual, stable cell lines were isolated with cloning disks according to the manufacturer's instructions (PGC Scientifics, Frederick, Md.).
RNA Isolation and Real-Time RT-PCR.
After initial neomycin selection and isolation of individual stable cell lines, MMP-1 mRNA and protein levels were determined using quantitative RT-PCR (qRT-PCR) and ELISA. MMP-1 mRNA levels were measured in RNA harvested from stably transfected cell lines after a 24 hour incubation in serum-free medium and were normalized to GAPDH mRNA levels. MMP-1 protein levels were measured in the serum-free media of the cell lines after 24 hours of incubation and were normalized to total protein content of the cells. The ELISA measured total (active and zymogen) forms of MMP-1 protein. […] To control for differences introduced into the cell lines during selection, these three individual cell lines for each group were pooled, and all subsequent experiments were performed on pooled cells.

MMP-1 protein = assay: Western blot of MMP-1 protein in culture medium; settings: MDA-231 cells producing the shRNA; 24 hours
Method: Western Blot Analysis. MDA-231 cells were cultured in 1 mL serum-free DMEM/F12 medium in six-well plates in the presence or absence of a collagen gel, with or without aprotinin (50 U/mL; Sigma, St. Louis, Mo.). After 24 hours, medium was harvested, proteins precipitated with cold 10% trichloroacetic acid, and resuspended in 50 μL SDS loading buffer (PROMEGA®, Madison, Wis.). Following SDS-PAGE and transfer to a PVDF membrane (IMMOBILON™-P; MILLIPORE™, Bedford, Mass.), the membrane was incubated in a 5% milk, Tris-buffered saline solution with 0.1% TWEEN™ (milk TBST) for 1 hour. The membrane was probed with a MMP-1 polyclonal antibody (CHEMICON®, Temecula, Calif.) diluted 1:5000 in milk TBST overnight at 4° C. The membrane was washed three times with TBST, and a 1:2000 dilution of goat anti-rabbit horseradish peroxidase (HRP) conjugated antibody (CELL SIGNALING TECHNOLOGY®, Beverly, Mass.) in milk TBST was added for 60 minutes. The blot was washed three times with TBST, and HRP activity was detected with the WESTERN LIGHTNING® chemiluminescence reagent according to the manufacturer's instructions (PERKINELMER®, Boston, Mass.).
The three MMPs primarily responsible for degrading type 1 collagen are MMP-1, MMP-13, and the membrane bound MT1-MMP (Stamenkovic (2003) J. Pathol. 200:448-64). […]

B1: MMP-1 shRNA: Vector-expressed small hairpin RNA, SEQ ID NO:1 (sense) and SEQ ID NO:2 (antisense), specific to bases 234-252 of MMP-1 mRNA (nucleic acid)
sense: GATCCCCACCAGATGCTGAAACCCTGTTCAAGAGACAGGGTTTCAGCATCTGGTTTTTTGGAAA
antisense: AGCTTTTCCAAAAAACCAGATGCTGAAACCCTGTCTCTTGAACAGGGTTTCAGCATCTGGTGGG
modifications: the letters are possibly those of the target site
MMP-9 mRNA level (MMP-9 mRNA): 197.3 ± 106 copies of the target gene/pg GAPDH
Copies of MMP-1 mRNA per pg GAPDH mRNA (MMP-1 mRNA; Group of cell lines D1, Y2, Y7, P=0.004 vs empty vector): 6200 ± 3200 copies per pg GAPDH mRNA
Copies of MMP-1 mRNA per pg GAPDH mRNA (MMP-1 mRNA; MDA-231 cell line D1): 8900 ± 3600 copies per pg GAPDH mRNA
Copies of MMP-1 mRNA per pg GAPDH mRNA (MMP-1 mRNA; MDA-231 cell line Y2): 4600 ± 2500 copies per pg GAPDH mRNA
Copies of MMP-1 mRNA per pg GAPDH mRNA (MMP-1 mRNA; MDA-231 cell line Y7): 5000 ± 2400 copies per pg GAPDH mRNA
reduction in MMP-1 mRNA levels compared to empty vector cell lines (MMP-1 mRNA; three stable MDA-231 cell lines, 24 hour serum-free): greater than 90%
MMP-1 protein in medium (western blot) (MMP-1 protein): No detectable MMP-1 protein
